Experiment [1] concerns the target biotinylated pDPEP1-Avi (pig DPEP1 residues 17-385) (pig (Sus scrofa)) (UniProt P22412). Description: BLI.
For experiment [2], the target named is hDPEP1-Avi (human DPEP1 residues 17-385) (human) (UniProt P16444). In words: BLI.

Drawing on publication PMC12578638, this text covers Kd for 1 substance.

Sequence of UniProt P16444 (P16444 17-385): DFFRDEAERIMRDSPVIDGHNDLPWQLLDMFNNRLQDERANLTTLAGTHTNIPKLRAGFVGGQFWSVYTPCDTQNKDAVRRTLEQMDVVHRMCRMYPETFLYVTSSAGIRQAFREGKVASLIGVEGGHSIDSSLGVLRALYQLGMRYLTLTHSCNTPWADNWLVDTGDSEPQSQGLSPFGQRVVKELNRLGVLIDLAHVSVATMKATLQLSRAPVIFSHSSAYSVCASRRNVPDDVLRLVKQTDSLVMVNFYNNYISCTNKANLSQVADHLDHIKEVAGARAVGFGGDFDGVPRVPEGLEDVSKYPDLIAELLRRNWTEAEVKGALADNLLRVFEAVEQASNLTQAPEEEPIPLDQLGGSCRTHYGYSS
Sequence of UniProt P22412 (P22412 17-385): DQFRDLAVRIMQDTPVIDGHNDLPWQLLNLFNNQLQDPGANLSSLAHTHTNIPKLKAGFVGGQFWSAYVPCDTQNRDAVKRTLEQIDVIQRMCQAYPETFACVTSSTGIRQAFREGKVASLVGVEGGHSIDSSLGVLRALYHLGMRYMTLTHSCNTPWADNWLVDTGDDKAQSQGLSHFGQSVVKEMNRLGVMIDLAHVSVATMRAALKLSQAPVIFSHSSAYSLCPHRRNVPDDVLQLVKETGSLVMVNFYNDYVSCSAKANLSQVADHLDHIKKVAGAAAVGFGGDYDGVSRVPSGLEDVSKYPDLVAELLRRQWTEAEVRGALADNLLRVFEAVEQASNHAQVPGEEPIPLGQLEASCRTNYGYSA

For “PHEV spike RBD (residues 327-605), from Expi293F cells (domain or fragment)”, the Kd in experiment [1] amounted to 1.5 µM; in experiment [2], 2.99 µM.
